Test results from patent US20110268740A1.

How the values were obtained:
[1] = target: M2e-VN (Influenza A virus A/VN/1203/04 (H5N1)); assay: ELISA, apparent affinity, purified scFv-msFcγ2c on immobilised M2e-VN

Binder	EC50 (scFv-D005-msFcγ2c)	EC50 (scFv-E040-msFcγ2c)	EC50 (scFv-F052-msFcγ2c)	EC50 [1]
SLLTEVETPTRNEWECRCSDSSD (modifications not checked) [M2e-VN]	32.5 µM	43.2 µM	50.8 µM	
scFv-D005-msFcγ2c (Fc fusion) DADPAQAAELVMTQSPDSLAVSLGERATINCKSSQSVLYTSNNKNYLGWYQQKPGQPPNLLIYWASTRESGVPDRFSGSGSGTDFTLTINSVQAEDVAVYYCQQYFMTPITFGQGTRLEIKGGSSRSSSSGGGGSGGGGEVQLVESGGALVQPGRSLRLSCRTSGLNFGDYPINWVRQAPGKGLEWVGFIKSKSYGVTTEFAASVEGRFTISRDDSRGIAYLQMNSLKTEDTAVYYCTSSSGFLYYFDYWGQGTLVTVSSASTKGPSVTSGQAGRKLEPRVPITQNPCPPLKECPPCAAPDLLGGPSVFIFPPKIKDVLMISLSPMVTCVVVDVSEDDPDVQISWFVNNVEVHTAQTQTHREDYNSTLRVVSALPIQHQDWMSGKEFKCKVNNRALPSPIEKTISKPRGPVRAPQVYVLPPPAEEMTKKEFSLTCMITGFLPAEIAVDWTSNGRTEQNYKNTATVLDSDGSYFMYSKLRVQKSTWERGSLFACSVVHEGLHNHLTTKTISRSLGK				0.0515 nM
scFv-E040-msFcγ2c (Fc fusion) DADPAQAAELVMTQSPDSLAVSLGERATINCKSSQSVLYSSNNENYLAWYQQKPGQPPKLLIYWASTRESGVPDRFSGSGSGTDFTLTINSVQAEDVAVYYCQQYFMTPITFGQGTRLEIKGGSSRSSSSGGGGSGGGGEVQLLESGGALVQPGRSLRLSCRTSGLNFGDYPINWVRQAPGKGLEWVGFIKSKSYGVTTEFAASVEGRFTISRDDSRGIAYLQMNSLKTEDTAVYYCTSSSGFLYYFDYWGQGTLVTVSSASTKGPSVTSGQAGRKLEPRVPITQNPCPPLKECPPCAAPDLLGGPSVFIFPPKIKDVLMISLSPMVTCVVVDVSEDDPDVQISWFVNNVEVHTAQTQTHREDYNSTLRVVSALPIQHQDWMSGKEFKCKVNNRALPSPIEKTISKPRGPVRAPQVYVLPPPAEEMTKKEFSLTCMITGFLPAEIAVDWTSNGRTEQNYKNTATVLDSDGSYFMYSKLRVQKSTWERGSLFACSVVHEGLHNHLTTKTISRSLGK				0.0464 nM
scFv-F052-msFcγ2c (Fc fusion) DADPAQAAERVMTQSPDALAVSLGERATINCKSSQSLLYSSNNKNYLAWYQKKPGQPPKLLIYWASTRESGVPDRFSGSGSGTEFTLTINSVQAEDVAVYYCQQYFMTPITFGQGTKLEIKGGSSRSSSSGGGGSGGGGQVQLQESGGALVQPGRSLRLSCRTSGLNFGDYPINWVRQAPGKGLEWVGFIKSKSYGVTTEFAASVEGRFTISRDDSRGIAYLQMNSLKTEDTAVYYCTSSSGFLYYFDYWGQGTLVTVSSASTKGPSVTSGQAGRKLEPRVPITQNPCPPLKECPPCAAPDLLGGPSVFIFPPKIKDVLMISLSPMVTCVVVDVSEDDPDVQISWFVNNVEVHTAQTQTHREDYNSTLRVVSALPIQHQDWMSGKEFKCKVNNRALPSPIEKTISKPRGPVRAPQVYVLPPPAEEMTKKEFSLTCMITGFLPAEIAVDWTSNGRTEQNYKNTATVLDSDGSYFMYSKLRVQKSTWERGSLFACSVVHEGLHNHLTTKTISRSLGK				0.0459 nM
